Experiment in all cases: cell-based or functional assay
In assay [1] the target is NA (neuraminidase) used in the NA activity inhibition experiments of Example 9.
Assay [2] has as its target T1, neuraminidase of influenza A/Vietnam/1203/04 (H5N1, clade 1) on live virus (influenza A/Vietnam/1203/04 (H5N1), UniProt Q6DPL2 1-449).
For assay [3], the target named is T1, neuraminidase of influenza …. The source holds these as a separate data set.

T1 sequence (Q6DPL2 whole entry): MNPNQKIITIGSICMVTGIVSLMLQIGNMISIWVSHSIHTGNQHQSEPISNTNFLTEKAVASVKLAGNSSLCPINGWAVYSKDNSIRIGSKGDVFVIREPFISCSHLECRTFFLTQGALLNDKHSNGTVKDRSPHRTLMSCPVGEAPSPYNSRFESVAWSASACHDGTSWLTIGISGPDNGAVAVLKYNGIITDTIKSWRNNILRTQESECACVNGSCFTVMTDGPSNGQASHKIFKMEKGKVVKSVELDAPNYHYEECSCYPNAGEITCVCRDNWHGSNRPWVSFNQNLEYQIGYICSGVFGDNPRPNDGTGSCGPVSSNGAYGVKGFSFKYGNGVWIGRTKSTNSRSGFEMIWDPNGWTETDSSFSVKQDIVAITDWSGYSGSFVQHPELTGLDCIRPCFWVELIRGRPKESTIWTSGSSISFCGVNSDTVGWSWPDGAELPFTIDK

B1: 2B9 anti-N1 neuraminidase monoclonal antibody (antibody, V domains shown)
VH: QVQLQQSGAELVRPGTSVKMSCKAAGYTFTNYWIGWVKQRPGHGLEWIGDIYPENDFSNYNEKFKDKATLTADTSSRTAYMQLSSLTSEDSAIYYCVRANEGWYLDVWGTGTTVSVSS
VL: DIQMTQSPASLSESVGETVTITCRASENIYSYLAWYQQKQGKSPQLLVYFAKTLAEGVPSTFSGSGSGTLFSLKINSLQPEDFGNYYCQHHYGTPYTFGGGTKLEIKR
Take B1: the “IC50, inhibition of NA activity” value in assay [1] came to 0.82 µg/mL. The “IC50 of 2B9 against various influenza strains (NA inhibition)” value in assay [2] is at most 1 µg/mL. Besides, the “NA assay IC50 (Antibody IC50)” value in assay [3] is below 1 µg/mL.
